# Assay results published in the Immune Epitope Database (IEDB).
# Tests used:
# HLA-B*39:01 [1] = assay: IEDB peptide-MHC binding, purified MHC/direct/fluorescence; filed as Kd, often an IC50 or EC50 that approximates it; ≥ and ≤ were set here for values at or beyond the usual limits of such assays
# HLA-B*15:09 = assay: as above
# HLA-A*02:50 = assay: IEDB peptide-MHC binding, purified MHC/competitive/fluorescence; filed as Kd, often an IC50 or EC50 that approximates it; ≥ and ≤ were set here for values at or beyond the usual limits of such assays
# HLA-A*69:01 [2] = assay: IEDB peptide-MHC binding, purified MHC/direct/fluorescence; filed as Kd, often an IC50 or EC50 that approximates it; ≥ and ≤ were set here for values at or beyond the usual limits of such assays
# HLA-A*02:11 [3] = assay: as above
# HLA-C*12:03 = assay: as above; conditions: source organism: Salmonella enterica subsp. enterica serovar Typhi
# HLA-A*02:01 [4] = assay: as above
# HLA-A*69:01 [5] = assay: IEDB peptide-MHC binding, purified MHC/competitive/fluorescence; filed as Kd, often an IC50 or EC50 that approximates it; ≥ and ≤ were set here for values at or beyond the usual limits of such assays; conditions: source organism: Canarypox virus
# HLA-A*26:01 [6] = assay: as above; conditions: source organism: Canarypox virus
# HLA-B*27:03 = assay: as above; conditions: source organism: Canarypox virus
# HLA-A*23:01 = assay: as above; conditions: source organism: Canarypox virus
# HLA-B*51:01 = assay: as above; conditions: source organism: Canarypox virus
# HLA-A*02:16 = assay: as above; conditions: source organism: Canarypox virus
# HLA-B*15:01 [7] = assay: as above; conditions: source organism: Canarypox virus
# HLA-B*39:01 [8] = assay: as above; conditions: source organism: Canarypox virus
# HLA-B*15:17 [9] = assay: as above; conditions: source organism: Canarypox virus
# HLA-A*02:03 = assay: as above
# HLA-B*46:01 = assay: as above; conditions: source organism: Canarypox virus
# HLA-B*18:01 [10] = assay: as above; conditions: source organism: Canarypox virus
# HLA-A*02:11 [11] = assay: as above; conditions: source organism: Canarypox virus
# HLA-A*02:19 = assay: as above; conditions: source organism: Canarypox virus
# HLA-A*31:01 [12] = assay: as above; conditions: source organism: Canarypox virus
# HLA-B*57:01 [13] = assay: as above; conditions: source organism: Canarypox virus
# HLA-A*02:12 = assay: as above; conditions: source organism: Canarypox virus
# HLA-A*02:01 [14] = assay: as above; conditions: source organism: Canarypox virus
# HLA-A*68:02 [15] = assay: as above; conditions: source organism: Canarypox virus
# HLA-A*24:03 = assay: as above; conditions: source organism: Canarypox virus
# HLA-B*48:01 = assay: IEDB peptide-MHC binding, purified MHC/direct/fluorescence; filed as Kd, often an IC50 or EC50 that approximates it; ≥ and ≤ were set here for values at or beyond the usual limits of such assays; conditions: source organism: Mycobacterium tuberculosis
# HLA-A*26:01 [16] = assay: as above; conditions: source organism: Mycobacterium tuberculosis str. Haarlem
# HLA-B*07:02 = assay: as above; conditions: source organism: Mycobacterium tuberculosis
# HLA-B*40:01 = assay: as above; conditions: source organism: Mycobacterium tuberculosis
# HLA-B*15:01 [17] = assay: as above; conditions: source organism: Mycobacterium tuberculosis
# HLA-B*15:17 [18] = assay: as above; conditions: source organism: Mycobacterium tuberculosis
# HLA-B*18:01 [19] = assay: as above; conditions: source organism: Mycobacterium tuberculosis
# HLA-B*44:02 = assay: as above; conditions: source organism: Mycobacterium tuberculosis
# HLA-A*01:01 = assay: as above; conditions: source organism: Mycobacterium tuberculosis
# HLA-B*58:01 = assay: as above; conditions: source organism: Mycobacterium tuberculosis
# HLA-B*08:01 = assay: as above; conditions: source organism: Mycobacterium tuberculosis str. Haarlem
# HLA-A*11:01 = assay: as above; conditions: source organism: Mycobacterium tuberculosis
# HLA-A*31:01 [20] = assay: as above; conditions: source organism: Mycobacterium tuberculosis
# HLA-B*57:01 [21] = assay: as above; conditions: source organism: Mycobacterium tuberculosis
# HLA-A*03:01 = assay: as above; conditions: source organism: Mycobacterium tuberculosis
# HLA-B*27:05 = assay: as above; conditions: source organism: Mycobacterium tuberculosis
# HLA-A*68:02 [22] = assay: as above; conditions: source organism: Mycobacterium tuberculosis
# [23] = source organism: Salmonella enterica subsp. enterica serovar Typhi
# [24] = source organism: Mycobacterium tuberculosis
# [25] = source organism: Mycobacterium tuberculosis str. Haarlem
sequence,measurement,setting,value
AHDELENYI,Kd,HLA-B*39:01 [1]; source organism: Camelpox virus CMS,2.86 µM
same,Kd,HLA-B*15:09; source organism: Variola virus,1.67 µM
FIKNPACTV,Kd,HLA-A*02:50; [23],0.0019 µM
same,Kd,HLA-A*69:01 [2]; [23],0.154 µM
same,Kd,HLA-A*02:11 [3]; [23],0.002 µM
same,Kd,HLA-C*12:03,≤ 0.001 µM
same,Kd,HLA-A*02:01 [4]; [23],6.36 µM
GTIIVHPNK,Kd,HLA-A*69:01 [5],≥ 20 µM
same,Kd,HLA-A*26:01 [6],≥ 20 µM
same,Kd,HLA-B*27:03,≥ 20 µM
same,Kd,HLA-A*23:01,≥ 20 µM
same,Kd,HLA-B*51:01,≥ 20 µM
same,Kd,HLA-A*02:16,≥ 20 µM
same,Kd,HLA-B*15:01 [7],≥ 20 µM
same,Kd,HLA-B*39:01 [8],≥ 20 µM
same,Kd,HLA-B*15:17 [9],≥ 20 µM
same,Kd,HLA-A*02:03; source organism: Canarypox virus,≥ 20 µM
same,Kd,HLA-B*46:01,≥ 20 µM
same,Kd,HLA-B*18:01 [10],≥ 20 µM
same,Kd,HLA-A*02:11 [11],≥ 20 µM
same,Kd,HLA-A*02:19,≥ 20 µM
same,Kd,HLA-A*31:01 [12],0.101 µM
same,Kd,HLA-B*57:01 [13],≥ 20 µM
same,Kd,HLA-A*02:12,≥ 20 µM
same,Kd,HLA-A*02:01 [14],≥ 20 µM
same,Kd,HLA-A*68:02 [15],≥ 20 µM
same,Kd,HLA-A*24:03,≥ 20 µM
SFYGYGFNV,Kd,HLA-A*02:50; source organism: Mycobacterium tuberculosis H37Ra,0.0224 µM
same,Kd,HLA-A*69:01 [2]; [24],0.052 µM
same,Kd,HLA-A*02:11 [3]; [25],0.01 µM
same,Kd,HLA-A*02:01 [4]; [24],0.413 µM
WEITYLGTT,Kd,HLA-A*02:03; source organism: Mycobacterium tuberculosis variant bovis BCG str. Pasteur 1173P2,≥ 20 µM
same,Kd,HLA-A*69:01 [2]; [24],≥ 20 µM
same,Kd,HLA-B*48:01,≥ 20 µM
same,Kd,HLA-A*26:01 [16],≥ 20 µM
same,Kd,HLA-B*07:02,≥ 20 µM
same,Kd,HLA-B*40:01,3.26 µM
same,Kd,HLA-B*15:01 [17],≥ 10 µM
same,Kd,HLA-B*39:01 [1]; [25],≥ 20 µM
same,Kd,HLA-B*15:17 [18],≥ 20 µM
same,Kd,HLA-B*18:01 [19],0.297 µM
same,Kd,HLA-B*15:09; [25],≥ 20 µM
same,Kd,HLA-B*44:02,≥ 20 µM
same,Kd,HLA-A*01:01,≥ 20 µM
same,Kd,HLA-B*58:01,≥ 20 µM
same,Kd,HLA-B*08:01,≥ 20 µM
same,Kd,HLA-A*11:01,≥ 20 µM
same,Kd,HLA-A*31:01 [20],≥ 20 µM
same,Kd,HLA-B*57:01 [21],≥ 20 µM
same,Kd,HLA-A*03:01,≥ 20 µM
same,Kd,HLA-B*27:05,≥ 20 µM
same,Kd,HLA-A*02:01 [4]; [24],≥ 20 µM
same,Kd,HLA-A*68:02 [22],≥ 20 µM
